Experiment [1] addresses His-tagged recombinant TcHpHbR (T. congolense haptoglobin-hemoglobin complex receptor, without the signal sequence) (Trypanosoma congolense IL3000). Briefly: SPR; quantitative: Biacore X, His-tagged receptor immobilised on CM5 (rTcHpHbR 800 RU, rTbHpHbR 480 RU), 30 μl/min, free-Hb and free-Hp 0.0001-10 μM; Kd = dissociation rate constant / association rate constant. In general terms: SPR reads the build-up and loss of mass on a sensor chip optically.

Experiment [2] deals with His-tagged recombinant TbHpHbR (T. brucei haptoglobin-hemoglobin complex receptor, without the signal sequence) (Trypanosoma brucei brucei GUTat 3.1). The description is as above.

For the molecule “bovine hemoglobin (free-Hb), from bovine erythrocytes (from UniProt P01966 1-142; P02070 1-145) (ligand)”, the results for the Kd in experiment [1] and in experiment [2] were 0.0205 µM and 5.3 µM, respectively.

B1: haptoglobin (free-Hp) (ligand)
chain 1: VETGSEATADSCPKAPEIANSHVEYSVRYQCDKYYKLHAGNGVYTFNNKQWINKDIGQQLPECEEDDSCPEPPKIENGYVEYLVRYQCKPYYTLRTCGDGVYTFNSKKQWINKNIGQKLPECEAVCGKPKHPVDQVQ
chain 2: IIGGSLDAKGSFPWQAKMVSQHNLISGATLINERWLLTTAKNLYLGHSSDKKAKDITPTLRLYVGKNQLVEVEKVVLHPDHSKVDIGLIKLRQKVPVNDKVMPICLPSKDYVKVGRVGYVSGWGRNENFNFTEHLKYVMLPVADQDKCVKHYEGVDAPKNKTAKSPVGVQPILNENTFCVGLSKYQDDTCYGDAGSAFVVHDKEDDTWYAAGILSFDKSCAVAEYGVYVKVTSILDWVRKTIANN
B1: the Kd in experiment [1] is 0.22 µM; in experiment [2], 1.8 µM.

Broadly, the Kd is the equilibrium constant for the complex coming apart.

(Values after PMC4877808.)
